Reference: article PMC6969876, “NADPH biosensor-based identification of an alcohol dehydrogenase variant with improved catalytic properties caused by a single charge reversal at the protein surface” (AMB Express, 2020)
Positions count from the first letter of the chain named. Numbers in names are those of the source.

B1: LbADH (Levilactobacillus brevis) (protein)
chain: SNRLDGKVAIITGGTLGIGLAIATKFVEEGAKVMITGRHSDVGEKAAKSVGTPDQIQFFQHDSSDEDGWTKLFDATEKAFGPVSTLVNNAGIAVNKSVEETTTAEWRKLLAVNLDGVFFGTRLGIQRMKNKGLGASIINMSSIEGFVGDPSLGAYNASKGAVRIMSKSAALDCALKDYDVRVNTVHPGYIKTPLVDDLPGAEEAMSQRTKTPMGHIGEPNDIAYICVYLASNESKFATGSEFVVDGGYTAQ
B2: LbADH (Levilactobacillus brevis; K72E) (protein)
chain: B1 chain with K71E

Tests used:
[1] = substrate: CC(=O)CCC(C)=O; experiment: purified protein; format: biochemical, Levilactobacillus brevis; conditions: 0.3 mM NADPH, 1 mM MgCl2, 50 mM TEA pH 7.0, 30 °C
[2] = substrate: COC(=O)CC(C)=O; experiment: purified protein; format: biochemical, Levilactobacillus brevis; conditions: 0.3 mM NADPH, 1 mM MgCl2, 50 mM TEA pH 7.0, 30 °C

Protein	Km [1] [µM]	Vmax [1] [µmol/min/mg]	Km [2] [µM]	Vmax [2] [µmol/min/mg]
B1	5100 ± 600	148	1130 ± 60	154
B2	4300 ± 500	173	670 ± 40	221
